Assay results taken from article PMC12131814.

How the values were obtained:
[1] = molecular target: superfolder green fluorescent protein (sfGFP); assay: MST
[2] = molecular target: superfolder green fluorescent protein (sfGFP); assay: AUC
[3] = molecular target: superfolder green fluorescent protein (sfGFP); assay: MST; remark: listed apart in the source
[4] = molecular target: superfolder green fluorescent protein (sfGFP); assay: ITC

B1: anti-GFP nanobody (GFP-enhancer) (VHH)
VHH: QVQLVESGGALVQPGGSLRLSCAASGFPVNRYSMRWYRQAPGKEREWVAGMSSAGDRSSYEDSVKGRFTISRDDARNTVYLQMNSLKPEDTAVYYCNVNVGFEYWGQGTQVTVSS
[1]
  Kd: 1.53 nM
[2]
  Kd: 1.72 nM
  stoichiometry N: 1
[3]
  Kd: 1.52 nM
[4]
  Kd: 1 nM
  dH: -11.1 kcal/mol
